The source of these data is patent US20230069835A1 (ACADEMIA SINICA, published 2023).

The target of the test is T1, microsomal triglyceride transfer protein (MTTP), endogenous, in mouse intestinal epithelial cell lysates (mouse, UniProt O08601 22-894, limits assumed).
T1 construct: Endogenous protein in IEC or intestinal cell lysates of control, PRAP1-/- or E85V mice
T1 sequence (looked up): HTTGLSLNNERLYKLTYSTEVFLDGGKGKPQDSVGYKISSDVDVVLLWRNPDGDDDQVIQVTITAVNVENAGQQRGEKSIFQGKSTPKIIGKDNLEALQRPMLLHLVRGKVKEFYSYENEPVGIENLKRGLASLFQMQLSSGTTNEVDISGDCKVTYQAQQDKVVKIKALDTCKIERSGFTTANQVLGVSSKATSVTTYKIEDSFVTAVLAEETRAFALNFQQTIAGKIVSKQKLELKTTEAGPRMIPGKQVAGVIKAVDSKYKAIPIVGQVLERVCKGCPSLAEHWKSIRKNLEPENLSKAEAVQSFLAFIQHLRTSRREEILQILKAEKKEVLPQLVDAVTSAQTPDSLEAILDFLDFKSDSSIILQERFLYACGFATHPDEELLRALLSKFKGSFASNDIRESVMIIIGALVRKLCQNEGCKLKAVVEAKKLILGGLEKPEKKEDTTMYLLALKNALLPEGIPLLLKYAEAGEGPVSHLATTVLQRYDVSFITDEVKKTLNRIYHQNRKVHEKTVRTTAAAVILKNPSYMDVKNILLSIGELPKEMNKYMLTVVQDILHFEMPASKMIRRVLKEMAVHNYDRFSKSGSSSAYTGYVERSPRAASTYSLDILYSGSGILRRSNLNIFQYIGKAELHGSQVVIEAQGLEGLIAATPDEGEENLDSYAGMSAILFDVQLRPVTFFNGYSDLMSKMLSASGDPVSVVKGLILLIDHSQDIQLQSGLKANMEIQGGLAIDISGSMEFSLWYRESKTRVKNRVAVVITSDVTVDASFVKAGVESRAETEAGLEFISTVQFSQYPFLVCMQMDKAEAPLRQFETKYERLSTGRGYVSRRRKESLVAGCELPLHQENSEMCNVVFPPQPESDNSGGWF
The experiment in a line: co-immunoprecipitation from IEC lysates with PRAP1- or MTTP-specific antibody, immunoblot. As for the experimental part:
FIGS. 2A to 2H depict that PRAP1 formed a complex with microsomal triglyceride transfer protein (MTTP) and was involved in MTTP-mediated lipid transfer according to Example 2 of the present disclosure. FIG. 2A: Total intestinal cell lysates from control (WT), PRAP1^{-/-} (KO) or the E85V mutant mice (E85V) were immunoprecipitated with MTTP- or PRAP1-specific antibody, and the immune complexes (lanes 4-6) along with 1/50 input lysates as indicated were analyzed by immunoblotting using MTTP or PRAP1 antibodies. FIGS. 2B and 2C: Recombinant PRAP1 (rPRAR1, i.e., PRAP1ΔN20; designated as “rWT” in FIGS. 2B and 2C) stimulated the triglyceride (TG; FIG. 2B) and phospholipid (FIG. 2C) transfer activity of MTTP in the intestinal epithelial cells (IECs) purified from PRAP1^{-/-} mice. FIG. 2D: Immunoblotting analysis of MTTP expression in the intestinal cell lysates of control (PRAP1^{+/+}) or PRAP1^{-/-} mice. FIGS. 2E and 2F: MTTP-mediated transfer of TG (FIG. 2E) or phospholipid (FIG. 2F) was determined in PRAP1-deficient (PRAP1^{-/-}) IEC homogenates that had been pre-incubated with 10 μg of recombinant WT PRAP1 or the indicated mutant of PRAP1 (all without N-terminal 20 aa). […] N=3-4 for each panel. *, p<0.05; **, p<0.01; ***, p<0.001; n.s., p>0.05. FIGS. 2B, 2C, 2G and 2H: compared to the activity of PRAP1^{+/+} (bar 1). FIGS. 2E and 2F: compared to the activity in PRAP^{-/-} (bar 2). […]
For orientation: Immunoblotting shows a protein as a band on a membrane.

B1: endogenous E85V mutant PRAP1 in intestinal epithelial cells of E85V knock-in mice (other)
chain: APAHQVPVKTKGKHVFPEQETEKVWDTRALEPLEKDNQLGPLLPEPKQKPAAAEEKRPDAMTWVVTEDILSHLRSPLQGPELDLDSIDHPMSDDVQDEEVPQSRPILYRQVLQGPEEDLDHLAHSMEDS
notes: Endogenous protein in lysates of PRAP1 E85V/E85V mice; The 20-aa signal peptide is called putative; also called E85V mutant of PRAP1; mouse E85V mutant PRAP1
As for B1, the binding result is listed as “no binding”.
